Assay results published in US20210324050A1 (VANDERBILT UNIVERSITY, published 2021).

Legend:
GI.1 (M87661) VLPs = target: T1, GI.1 (M87661) VLPs (norovirus GI.1, UniProt Q83884 1-530; Q83885 1-212); assay: indirect ELISA on VLPs
T1 sequence (VP1): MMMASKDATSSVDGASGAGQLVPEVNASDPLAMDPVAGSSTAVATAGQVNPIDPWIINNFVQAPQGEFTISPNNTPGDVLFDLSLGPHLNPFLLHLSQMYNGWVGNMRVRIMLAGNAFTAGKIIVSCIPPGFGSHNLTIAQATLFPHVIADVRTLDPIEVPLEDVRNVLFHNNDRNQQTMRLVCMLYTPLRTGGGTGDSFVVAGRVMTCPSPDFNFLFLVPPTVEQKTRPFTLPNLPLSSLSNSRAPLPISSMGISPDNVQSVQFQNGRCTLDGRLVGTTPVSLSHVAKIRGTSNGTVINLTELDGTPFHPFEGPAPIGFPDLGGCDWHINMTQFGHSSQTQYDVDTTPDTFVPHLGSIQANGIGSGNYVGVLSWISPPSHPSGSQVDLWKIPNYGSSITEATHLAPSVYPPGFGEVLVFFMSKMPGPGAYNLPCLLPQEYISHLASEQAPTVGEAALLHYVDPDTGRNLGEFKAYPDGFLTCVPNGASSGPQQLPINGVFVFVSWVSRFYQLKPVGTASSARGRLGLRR
T1 sequence (VP2): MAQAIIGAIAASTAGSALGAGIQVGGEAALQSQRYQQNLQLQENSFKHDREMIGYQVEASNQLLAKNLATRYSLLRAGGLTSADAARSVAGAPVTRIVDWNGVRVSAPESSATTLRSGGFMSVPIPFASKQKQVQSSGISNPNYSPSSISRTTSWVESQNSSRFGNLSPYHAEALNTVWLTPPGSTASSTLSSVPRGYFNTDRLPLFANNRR

[1] = target: T2, GII.4 Sydney 2012 shell (S) domain (human norovirus GII.4 Sydney 2012, UniProt P54635 1-221 (Lordsdale virus entry), limits assumed); assay: indirect ELISA on recombinant P and S domains
T2 construct: Recombinant S domain particles (pVL1392, baculovirus, Sf9); the whole VP1 entry is named; also called GII.4 S domain
T2 chain: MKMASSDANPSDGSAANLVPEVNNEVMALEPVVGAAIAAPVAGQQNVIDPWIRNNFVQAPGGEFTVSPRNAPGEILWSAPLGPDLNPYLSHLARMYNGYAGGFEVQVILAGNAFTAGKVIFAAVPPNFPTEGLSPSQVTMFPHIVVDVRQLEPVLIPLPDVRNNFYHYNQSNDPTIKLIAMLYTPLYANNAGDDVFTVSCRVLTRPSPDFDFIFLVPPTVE

[2] = target: T3, GII.4 Houston 2002 (ABY27560.1) VLPs (human norovirus GII.4 Houston 2002, UniProt P54635 1-539); assay: ELISA on GII.4 Houston 2002 VLPs
T3 construct: also called GII.4 Houston 2002 antigen; GII.4 Houston VLPs
T3 chain: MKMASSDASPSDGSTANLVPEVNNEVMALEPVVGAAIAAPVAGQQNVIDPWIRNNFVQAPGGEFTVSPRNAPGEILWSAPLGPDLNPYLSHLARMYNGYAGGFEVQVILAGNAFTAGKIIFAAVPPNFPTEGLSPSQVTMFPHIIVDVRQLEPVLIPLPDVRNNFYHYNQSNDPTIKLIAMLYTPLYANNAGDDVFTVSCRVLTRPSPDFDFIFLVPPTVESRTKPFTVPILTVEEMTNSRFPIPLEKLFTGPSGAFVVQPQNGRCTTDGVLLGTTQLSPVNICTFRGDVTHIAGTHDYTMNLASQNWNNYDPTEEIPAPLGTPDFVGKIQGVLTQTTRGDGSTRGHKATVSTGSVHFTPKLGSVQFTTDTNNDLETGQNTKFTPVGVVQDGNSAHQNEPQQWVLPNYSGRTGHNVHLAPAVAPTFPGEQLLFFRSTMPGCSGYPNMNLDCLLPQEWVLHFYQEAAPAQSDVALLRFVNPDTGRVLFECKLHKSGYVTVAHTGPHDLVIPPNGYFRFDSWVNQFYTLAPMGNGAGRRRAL

[3] = target: T4, GII.4 Sydney 2012 virus-like particles (VLPs), based on strain AFV08795.1 (human norovirus GII.4 Sydney 2012, UniProt P54635 1-538); assay: indirect ELISA on coated GII.4 Sydney 2012 VLPs
T4 construct: also called GII.4 VLPs
T4 chain: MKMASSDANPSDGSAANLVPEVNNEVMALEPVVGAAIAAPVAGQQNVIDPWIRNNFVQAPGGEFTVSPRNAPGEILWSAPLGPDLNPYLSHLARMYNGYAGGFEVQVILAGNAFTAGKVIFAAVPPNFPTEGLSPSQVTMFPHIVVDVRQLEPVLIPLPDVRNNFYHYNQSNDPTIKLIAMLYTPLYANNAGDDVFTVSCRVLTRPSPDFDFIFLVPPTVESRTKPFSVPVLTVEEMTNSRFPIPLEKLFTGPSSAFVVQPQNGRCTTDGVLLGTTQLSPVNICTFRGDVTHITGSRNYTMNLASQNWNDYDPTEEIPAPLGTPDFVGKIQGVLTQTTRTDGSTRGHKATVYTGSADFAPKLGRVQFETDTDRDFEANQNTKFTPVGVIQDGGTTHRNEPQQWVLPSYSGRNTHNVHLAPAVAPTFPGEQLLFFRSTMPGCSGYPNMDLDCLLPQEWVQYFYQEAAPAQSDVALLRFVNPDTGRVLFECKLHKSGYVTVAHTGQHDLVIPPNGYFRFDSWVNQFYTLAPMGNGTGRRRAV

[4] = target: GII.4 Sydney 2012 virus-like particles (VLPs), based on strain AFV08795.1 (human norovirus GII.4 Sydney 2012, UniProt P54635 1-538); assay: indirect ELISA on coated GII.4 Sydney 2012 VLPs
[5] = target: T3, GII.4 Houston 2002 (ABY27560.1) VLPs; assay: ELISA on GII.4 Houston 2002 VLPs against ELISA on GII.4 Sydney 2012 VLPs

B1: NORO-156.3 (antibody, V domains shown)
VH: QVQLQQWGAGLLKPSETLSLTCAVYGGSFSGYYWSWIRQPPGKGLEWIGEINHSGSTNYNPSLKSRVTISVDTSKNQFSLKLSSVTAADTAVYYCARGLMDVWGQGTLVTVSS
VL: AIRMTQSPSSFSASTGDRVTITCRASQGISSYLAWYQQKPGKAPKLLIYAASTLQSGVPSRFSGSGSGTDFTLTISCLQSEDFATYYCQQYYSYPRTFGQGTKLEIK
binding result (GI.1 (M87661) VLPs): binds | binding result [1]: no binding (tested: 500 nM)

B2: NORO-202A.1 (antibody, V domains shown)
VH: QVQLVQSGAEVKKPGASVKVSCKASEYTFTGYYLQWVRQAPGHGLEWMGWINPSGGTKYSQKFQGRVTMTRDTSITTVYMELSRLRSDDTAVYYCARDLLRNWGDHDAFDVWGQGTMVTVSS
VL: QSVLTQPPSASETPGQGVTISCSGSSSNIGSNFVCWYQQVPGTAPKLLIYKNNQRPSGVPDRFSGSKSGTSASLAISGLRSEDEADYYCSAWDDSLSGPVFGGGTKLTVL
binding result (GI.1 (M87661) VLPs): no binding (tested: 500 nM) | binding result [2]: binds | EC50 [3]: 0.4 µg/mL

B3: NORO-246A (antibody, V domains shown)
VH: EVHLVESGGGLVKPGGSLRLSCAASGFTFSRYGMHWVRQAPGKGLEWVSSIVIRSDYKYYADSVKGRFTISRDNAKNSLYLQMNSLRADDTAVYYCARDLVEPGITPVGCDYWGRGTLVTVSS
VL: SNELTQAPSVSVSPGQTARITCFGDALANQYSYWYQRKPGQAPVLVIYKDSERPSGIPQRFSASNSGTTVTLTITGVQAEDEADYFCQSADSTGIYKVFGGGTKLTVL
EC50 [4]: 0.2 µg/mL

B4: NORO-115 (antibody, V domains shown)
VH: QVQLVESGGGLVKPGGSLRLSCTASGITISGYYMSWIRQAPGKGLEWIVYINTSGRTIYYADSVKGRFSVSRDNAKESLYLQMDSLTVDDTGIYYCARDRLPASGSHWFHPWGQGTLVTVSS
VL: DIVMTQSPDSLAVSLGGRATINCKSSQSVLYTSDNKNYLAWYQQQPGQPPKLLISWASTRESGVPDRFSGSGSGTDFTLTISNLQAEDVAVYYCQQYYNSPLAFGGGTKVEIK
fold higher binding EC50 compared to GII.4 Sydney 2012 VLPs [5]: > 10 fold
